These results are taken from patent US20050124794A1, “Cell surface tropomyosin as a target of angiogenesis inhibition” (priority 2002, published 2005).

“And” between values parts separate entries of the source, which are not always exact repeats. Equal entries are not always repeated. “Also recorded” adds a separate entry of the source.

The subject of assay [1] is proliferating ECs. Briefly: Binding of biotin-HKa to ECs. Also noted: species or system human. The settings on record: Zn2+-dependent (10 μM Zn2+), nonlinear regression, read-out: Kd of specific binding of HKa to proliferating ECs. How it is done:
Binding of HKa to ECs and purified Tpm. Binding of HKa to ECs was measured as described by Hasan, A A et al. (1995) J. Biol. Chem. 270:19256-19261. Briefly, 3×10^4 HLVEC/ml were cultured in 96-well microplates, then washed and incubated with increasing concentrations of biotin-HKa for two hours, at 4° C. After brief washing, cells were incubated sequentially with a 1:750 dilution of streptavidin peroxidase and the peroxidase substrate, turbo-TMB (Pierce), prior to measurement of A490. Absolute amounts of bound HKa were determined by comparison of A490 values with a standard curve prepared using known amounts of biotin-HKa Binding was measured in the presence (to determine total binding) and absence (to determine non-specific binding) of 10 μM Zn^2+, and specific binding defined as the difference between total and non-specific binding (van Iwaarden, F et al. (1988) J. Biol. Chem. 263:4698-4703). The dissociation constant (Kd) was determined by fitting the saturation isotherm by nonlinear regression using the Prism software program (GraphPad, San Diego, Calif.).
In selected experiments, the ability of mAb TM-311 to inhibit the binding of HKa to cells was assessed by incubating biotin-HKa with ECs in the presence of increasing concentrations of antibody. […]

The target in assay [2] is T1, chicken gizzard Tpm (Gallus gallus, UniProt P19352).
T1 construct: purchased Sigma; host or cells: chicken gizzard (tissue-derived, as the name says)
T1 sequence (P19352 1-284 isoform P19352-2): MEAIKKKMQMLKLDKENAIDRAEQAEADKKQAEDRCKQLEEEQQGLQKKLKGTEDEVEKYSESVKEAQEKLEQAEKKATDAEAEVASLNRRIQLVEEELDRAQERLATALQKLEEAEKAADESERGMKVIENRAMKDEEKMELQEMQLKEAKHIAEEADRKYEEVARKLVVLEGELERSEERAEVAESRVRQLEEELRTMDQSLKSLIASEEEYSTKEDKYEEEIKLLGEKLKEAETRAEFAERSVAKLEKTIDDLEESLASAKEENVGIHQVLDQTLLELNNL
T1 sequence (P04268 1-284 isoform P04268-2 F73S/I172L/T199L/N203E/L204A partner): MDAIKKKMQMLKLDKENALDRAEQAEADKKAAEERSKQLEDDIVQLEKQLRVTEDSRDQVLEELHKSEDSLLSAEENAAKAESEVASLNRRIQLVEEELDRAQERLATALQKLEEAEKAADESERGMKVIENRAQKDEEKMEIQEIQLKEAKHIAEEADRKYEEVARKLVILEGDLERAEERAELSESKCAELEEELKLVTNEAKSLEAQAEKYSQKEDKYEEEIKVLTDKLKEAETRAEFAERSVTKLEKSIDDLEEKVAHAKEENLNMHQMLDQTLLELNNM
As to the kind of experiment: Binding to immobilized Tpm in a 96 well plate (biotin-HKa competition or direct binding). The conditions noted are these: plate coated with 200 ng chicken gizzard Tpm, 10 μM ZnCl2. The procedure: Plates are coated at room temperature with chicken gizzard Tpm (Sigma) in Tris buffer-saline (TBS) (200 ng/well). After incubation for 2 hours, wells are washed with TBS, then 1% BSA/TBS/Tween-20 is added to each well and incubate at 37° C. for two hours. HKa (Enzyme Laboratories) that had been previously biotinylated with EZ-Link (Pierce) according to the manufacturers instructions, is added to the plate at a concentration of 10 nM together with ZnCl2 (10 μM) and the appropriate concentration of the protein, domain or peptide competitor. The plates are incubated at room temperature and then washed with TBS/Tween-20. Avidin-HRP is added, incubated for 20 minutes at room temperature, washed with TBS/Tween-20 and the chromogenic substrate is added. The reaction is stopped with sulfuric acid and the plate read at 490 nm.
The IC50 for the displacement of biotinylated-HKa for the peptides shown in Table 5 was determined as follows: 10 nM biotin-HKa is added to a 96 well plate previously coated with 200 ng of chicken gizzard Tpm in the presence of 10 μM ZnCl2. Increasing amounts of the peptides are added to the wells. The remaining biotin-HKa bound to Tpm was detected using avidin-HRP and a chromogenic substrate. A Kd was determined by non-linear regression analysis of the empirical data. The effect on the Matrigel Plug assay was determined as follows: Matrigel (0.5 mL) containing 400 ng/ml of bFGF, 50 μg/ml heparin with or without the peptide (300 μM) or saline buffer are injected in the flanks of a mouse. After five days, the plugs are removed and the plugs scanned.
The N-terminus of the pentapeptide HHPHG has been derivatized (capped) in an attempt to increase the pentapeptides' affinity to Tpm by increasing productive molecular contacts (or interactions). […] The IC50 for the displacement of biotinylated-HKa for the capped peptides shown in the table was determined as follows: 10 nM biotin-HKa was added to a 96 well plate previously coated with 200 ng of chicken gizzard Tpm in the presence of 10 μM ZnCl2. Increasing amounts of the peptides were added to the wells. The remaining biotin-HKa bound to Tpm was detected using avidin-HRP and a chromogenic substrate. A Kd was determined by non-linear regression analysis of the empirical data

The test system of assay [3] is bFGF-induced angiogenesis in the chick chorioallantoic membrane. Briefly: Chick chorioallantoic membrane (CAM) assay. The class given is in vivo. How it is done: This assay is performed essentially as described by Nguyen et al (Microvascular Res. 47:31-40 (1994)). A mesh containing either angiogenic factors (bFGF) or tumor cells plus inhibitors is placed onto the CAM of an 8-day old chick embryo and the CAM observed for 3-9 days after implantation of the sample. Angiogenesis is quantitated by determining the percentage of squares in the mesh which contain blood vessels.
Chick chorioallantoic membrane assay. […] Three day-old fertilized White Leghorn chicken eggs were cracked in sterile Petri dishes. Embryos were cultured at 37° C., under 4% CO2, until day 7, at which time a 3.0 mm filter disc containing either 30 ng bFGF (positive control), 30 ng bFGF and 10 μg HKa or 30 ng bFGF, 10 μg HKa and 20 μg of mAb TM-311 was placed on the CAM. Each experimental condition was tested in at least 6 eggs. On day 10, embryos were photographed using a SPOT digital camera Angiogenesis was quantitated by counting the number of neovessels in direct contact with the filter disc.

Another assay deals with HUVEC. As to the kind of experiment: EC proliferation assay (growth factor-induced). The conditions noted are these: bFGF 10 ng/ml; 20 nM HKa, 60 nM HKa domain 5. The assay is classed as cell-based, human. The procedure:
EC proliferation assays. The effect of HKa on ECs in the absence or presence of mAb TM-311 was initially assessed using a proliferation assay, as described in Zhang et al., supra. Relative numbers of cells remaining in each well of a 96 well microplate after incubation for 48 hours in the absence or presence of HKa were determined using the Aqueous® cell proliferation assay (Promega, Madison, Wis.). Results are presented as the percent inhibition of bFGF-induced EC proliferation, which essentially reflects the extent of HKa-induced EC apoptosis. Though bFGF was used as the EC mitogen in most studies of the studies described herein, identical results were obtained using VEGF.

In assay [4] the target is T1, chicken gizzard Tpm. As to the kind of experiment: Binding of HKa to purified Tpm immobilized in 96 well microplates. The conditions noted are these: biotin-HKa, Zn2+-dependent (10 μM Zn2+), nonlinear regression; read-out: Kd of binding of HKa to purified Tpm. The procedure:
To measure the binding of HKa to purified Tpm, 96 well microplates were coated with 20 μg/ml of chicken gizzard Tpm (Sigma), or bovine serum albumin (BSA), as a control. Wells were then blocked by incubation with phosphate buffered saline containing 5% nonfat milk, and incubated with increasing concentrations of HKa (0.01-20 nM) for 2 hours. Specifically-bound HKa was quantitated as described for cell binding assays (van Iwaarden et al., supra, and by assessing the ability of a 100-fold molar excess of unlabeled HKa to compete with biotin-HKa for binding.
In selected experiments, the ability of mAb TM-311 and recombinant HKa D5 to inhibit the binding of biotin-HKa to Tpm was assessed. These studies allowed determination of the Kd for binding of HKa D5 to Tpm using the equation: Kd (D5)=IC50/(1+[HKa]/Kd (HKa)) where IC50 is the concentration of HKa D5 that inhibited HKa binding by 50%, and Kd(HKa) is the Kd for binding of HKa to Tpm.

Assay [5] has as its system proliferating ECs. As to the kind of experiment: Assessment of EC apoptosis (DAPI, TUNEL, DNA cleavage). The assay is classed as cell-based, human. How it is done:
Assessment of EC apoptosis. The effect of TM-311 on HKa- or HKa D5-induced EC apoptosis was determined using several methods. First, staining of control or HKa exposed ECs using 4′, 6′-diamidino-2-phenylindole dihydrochloride (DAPI) (Molecular Probes, Eugene Oreg.) was employed to highlight apoptosis-associated changes in nuclear morphology. Second, apoptosis was assessed by TUNEL staining, using the Apo-Direct kit (Pharmingen, San Diego, Calif.). Cells were counterstained with propidium iodide to define all nuclei, and the percentage of apoptotic CUNEL positive) nuclei determined by manual counting. Finally, to assess endothelial apoptosis by endonucleolytic cleavage of DNA, EC DNA was isolated and separated using 0.8% agarose gel electrophoresis. Gels were stained with ethidium bromide, and DNA visualized using UV light.

B1: HKa: Two-chain high molecular weight kininogen, purchased from Enzyme Research Laboratories (protein)
chain 1: QESQSEEIDCNDKDLFKAVDAALKKYNSQNQSNNQFVLYRITEATKTVGSDTFYSFKYEIKEGDCPVQSGKTWQDCEYKDAAKAATGECTATVGKRSSTKFSVATQTCQITPAEGPVVTAQYDCLGCVHPISTQSPDLEPILRHGIQYFNNNTQHSSLFMLNEVKRAQRQVVAGLNFRITYSIVQTNCSKENFLFLTPDCKSLWNGDTGECTDNAYIDIQLRIASFSQNCDIYPGKDFVQPPTKICVGCPRDIPTNSPELEETLTHTITKLNAENNATFYFKIDNVKKARVQVVAGKKYFIDFVARETTCSKESNEELTESCETKKLGQSLDCNAEVYVVPWEKKIYPTVNCQPLGMISLMK
chain 2: SSRIGEIKEETTVSPPHTSMAPAQDEERDSGKEQGHTRRHDWGHEKQRKHNLGHGHKHERDQGHGHQRGHGLGHGHEQQHGLGHGHKFKLDDDLEHQGGHVLDHGHKHKHGHGHGKHKNKGKKNGKHNGWKTEHLASSSEDSTTPSAQTQEKTEGPTPIPSLAKPGVTVTFSDFQDSDLIATMMPPISPAPIQSDDDWIPDIQTDPNGLSFNPISDFPDTTSPKCPGRPWKSVSEINPTTQMKESYYFDLTDGLS
One may read the Kd as the free concentration of one partner at which half of the binding sites on the other are occupied at equilibrium, for simple one-to-one binding. Consider B1, for which the Kd was ~2.5 nM and ~2.6 nM in the assay on proliferating ECs [1]; approximately 1 nM with chicken gizzard Tpm [2]; ~2.6 nM and ~2.5 nM in the assay with chicken gizzard Tpm [4]. Moreover, the “inhibition of angiogenesis induced by bFGF-containing filter discs, vessel counts” value in assay [3] (30 ng bFGF, 10 μg HKa) is on record as “about 85%”. In addition, the “inhibition of bFGF-induced angiogenesis in the CAM (in words)” value in assay [3] (in vivo) was “inhibited basic FGF-induced angiogenesis; also recorded: antiangiogenic activity”. The “inhibition of bFGF-induced EC proliferation (in words)” value with HUVEC was “inhibition”. Besides, the “induction of EC apoptosis (in words)” value in the assay on proliferating ECs [5] is listed as “induction of EC apoptosis”.
